Results as given in article PMC10397247.

Assays:
Assay in all cases: two-hybrid library CCNG1;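 also: natural log of median RNA to DNA barcode read ratio; higher means stronger binding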
4H3601-bH = target: T1, 4H3601-bH
T1 chain: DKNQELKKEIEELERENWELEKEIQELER

4H3907-bH = target: T2, 4H3907-bH
T2 chain: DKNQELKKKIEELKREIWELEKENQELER

4H3592-bH = target: T3, 4H3592-bH
T3 chain: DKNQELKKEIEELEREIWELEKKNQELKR

4H1406-bH = target: T4, 4H1406-bH
T4 chain: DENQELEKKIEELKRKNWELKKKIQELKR

4H4038-bH = target: T5, 4H4038-bH
T5 chain: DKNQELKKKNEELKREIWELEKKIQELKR

4H3297-bN = target: T6, 4H3297-bN
T6 chain: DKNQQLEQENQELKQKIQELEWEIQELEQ

4H2859-bN = target: T7, 4H2859-bN
T7 chain: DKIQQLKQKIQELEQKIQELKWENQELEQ

4H932-bN = target: T8, 4H932-bN
T8 chain: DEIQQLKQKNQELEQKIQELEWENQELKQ

4H2162-bN = target: T9, 4H2162-bN
T9 chain: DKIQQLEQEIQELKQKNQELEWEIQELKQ

4H796-bN = target: T10, 4H796-bN
T10 chain: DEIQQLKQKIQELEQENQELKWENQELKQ

4H2444-bA = target: T11, 4H2444-bA
T11 chain: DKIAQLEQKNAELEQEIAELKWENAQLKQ

4H3041-bN = target: T12, 4H3041-bN
T12 chain: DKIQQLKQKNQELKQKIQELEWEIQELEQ

4H349-bN = target: T13, 4H349-bN
T13 chain: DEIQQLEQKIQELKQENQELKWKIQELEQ

4H2444-bN = target: T14, 4H2444-bN
T14 chain: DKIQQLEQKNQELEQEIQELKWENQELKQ

4H56-bN = target: T15, 4H56-bN
T15 chain: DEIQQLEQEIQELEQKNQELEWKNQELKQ

4H2585-bN = target: T16, 4H2585-bN
T16 chain: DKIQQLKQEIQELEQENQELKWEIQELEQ

4H949-bN = target: T17, 4H949-bN
T17 chain: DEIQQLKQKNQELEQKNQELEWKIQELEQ

4H264-bN = target: T18, 4H264-bN
T18 chain: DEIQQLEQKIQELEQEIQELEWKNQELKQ

4H235-bN = target: T19, 4H235-bN
T19 chain: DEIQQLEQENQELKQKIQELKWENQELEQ

4H2931-bN = target: T20, 4H2931-bN
T20 chain: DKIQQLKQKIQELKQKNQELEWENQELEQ

4H2760-bN = target: T21, 4H2760-bN
T21 chain: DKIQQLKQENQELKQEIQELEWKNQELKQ

4H3364-bN = target: T22, 4H3364-bN
T22 chain: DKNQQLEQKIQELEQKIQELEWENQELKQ

4H2233-bN = target: T23, 4H2233-bN
T23 chain: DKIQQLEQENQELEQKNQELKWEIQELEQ

4H3381-bN = target: T24, 4H3381-bN
T24 chain: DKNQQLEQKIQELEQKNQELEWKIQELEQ

4H2518-bN = target: T25, 4H2518-bN
T25 chain: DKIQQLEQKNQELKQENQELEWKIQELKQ

4H2253-bN = target: T26, 4H2253-bN
T26 chain: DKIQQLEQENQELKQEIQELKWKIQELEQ

4H730-bN = target: T27, 4H730-bN
T27 chain: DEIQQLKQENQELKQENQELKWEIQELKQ

Binder | interaction score (4H3297-bN) | interaction score (4H2859-bN) | interaction score (4H932-bN) | interaction score (4H796-bN) | interaction score (4H3041-bN) | interaction score (4H349-bN) | interaction score (4H2444-bN) | interaction score (4H56-bN) | interaction score (4H2585-bN) | interaction score (4H949-bN) | interaction score (4H264-bN) | interaction score (4H235-bN) | interaction score (4H2931-bN) | interaction score (4H2760-bN) | interaction score (4H3364-bN) | interaction score (4H2233-bN) | interaction score (4H3381-bN) | interaction score (4H2518-bN) | interaction score (4H2253-bN) | interaction score (4H730-bN) | other results
DENQELEKKIEELKRKNWELKKKIQELKR [4H1406-bH] | – | – | – | – | – | – | – | – | – | – | – | – | – | – | – | – | – | – | – | – | interaction score (4H3601-bH): 0.0362; interaction score (4H3907-bH): 1.11; interaction score (4H3592-bH): 1.08; interaction score (4H1406-bH): -0.652; interaction score (4H4038-bH): -0.136
DKIQQLEQEIQELKQKNQELEWEIQELKQ [4H2162-bN] | -0.173 | 0.571 | -0.305 | -0.418 | 1.18 | 0.391 | -1.27 | -0.33 | 0.615 | -1.05 | -0.799 | -0.0614 | -1.12 | -0.495 | -0.416 | -0.887 | -0.622 | 0.614 | -0.654 | -0.649 | interaction score (4H2162-bN): 1.61; interaction score (4H2444-bA): -0.359
DKIQQLEQENQELEQKNQELKWEIQELEQ [4H2233-bN] | -1.34 | -0.431 | -1.19 | -0.624 | -1.98 | -0.452 | -0.713 | -0.577 | -2.3 | -1.36 | -0.163 | -0.762 | -0.485 | -0.863 | -0.324 | -1.12 | -0.889 | 1.97 | -0.322 | -0.539 | –
